Data from patent US7220539.

Key:
[1] = target: Akt (over-expressed or present in transfected cells; isoform and tag not stated); assay: cell-based or functional assay
[2] = target: GAL4 ΔPH (amino acids 150-480) Akt construct (yeast) (UniProt P04386); assay: cell-based or functional assay
TRB-2 = system: T1, TRB-2
T1 sequence: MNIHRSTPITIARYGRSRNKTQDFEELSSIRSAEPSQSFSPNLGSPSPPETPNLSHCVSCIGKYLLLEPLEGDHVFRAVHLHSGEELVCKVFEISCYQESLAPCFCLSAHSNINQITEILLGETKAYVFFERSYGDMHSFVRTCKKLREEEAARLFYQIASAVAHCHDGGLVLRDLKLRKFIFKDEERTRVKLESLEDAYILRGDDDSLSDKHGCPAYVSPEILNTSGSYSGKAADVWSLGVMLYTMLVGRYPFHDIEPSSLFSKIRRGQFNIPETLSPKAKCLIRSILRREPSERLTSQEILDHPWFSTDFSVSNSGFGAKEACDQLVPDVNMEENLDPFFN

[3] = system: TRB-3 (wild-type, recombinant; tag and species not stated)

UniProt P04386, sequence (P04386 1-147, stated change not applied): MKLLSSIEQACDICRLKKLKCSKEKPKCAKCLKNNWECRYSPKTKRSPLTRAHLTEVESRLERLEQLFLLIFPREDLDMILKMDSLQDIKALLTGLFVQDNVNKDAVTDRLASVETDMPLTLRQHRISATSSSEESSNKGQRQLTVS

Substance: TRB-3 (wild-type, recombinant; tag and species not stated)
- forkhead (Foxo1) activity on an IGFBP1 reporter in HEK293 cells [1]: 3 fold

Substance: TRB-3-VP16 (from UniProt P06492 411-490)
- GAL4 luciferase reporter activity, mammalian two hybrid assay in HEK293 cells, relative to control VP16 expression vector [2]: 5 fold

Substance: Akt (over-expressed or present in transfected cells; isoform and tag not stated)
- phosphorylation of Akt (TRB-2): TRB-2 was similarly effective at blocking Akt phosphorylation

Substance: HA-tagged Akt1
- Akt activity, in vitro kinase assays with a consensus Akt peptide substrate [3]: Over-expression of TRB-3 reduced Akt activity
